Positions count from the first letter of the chain named.
Columns and labels:
Experiment in all cases: pull-down
His6-S-Rad54 = target: T1, His6-S-Rad54 (S. cerevisiae (budding yeast), UniProt P32863 1-898)
T1 sequence (looked up): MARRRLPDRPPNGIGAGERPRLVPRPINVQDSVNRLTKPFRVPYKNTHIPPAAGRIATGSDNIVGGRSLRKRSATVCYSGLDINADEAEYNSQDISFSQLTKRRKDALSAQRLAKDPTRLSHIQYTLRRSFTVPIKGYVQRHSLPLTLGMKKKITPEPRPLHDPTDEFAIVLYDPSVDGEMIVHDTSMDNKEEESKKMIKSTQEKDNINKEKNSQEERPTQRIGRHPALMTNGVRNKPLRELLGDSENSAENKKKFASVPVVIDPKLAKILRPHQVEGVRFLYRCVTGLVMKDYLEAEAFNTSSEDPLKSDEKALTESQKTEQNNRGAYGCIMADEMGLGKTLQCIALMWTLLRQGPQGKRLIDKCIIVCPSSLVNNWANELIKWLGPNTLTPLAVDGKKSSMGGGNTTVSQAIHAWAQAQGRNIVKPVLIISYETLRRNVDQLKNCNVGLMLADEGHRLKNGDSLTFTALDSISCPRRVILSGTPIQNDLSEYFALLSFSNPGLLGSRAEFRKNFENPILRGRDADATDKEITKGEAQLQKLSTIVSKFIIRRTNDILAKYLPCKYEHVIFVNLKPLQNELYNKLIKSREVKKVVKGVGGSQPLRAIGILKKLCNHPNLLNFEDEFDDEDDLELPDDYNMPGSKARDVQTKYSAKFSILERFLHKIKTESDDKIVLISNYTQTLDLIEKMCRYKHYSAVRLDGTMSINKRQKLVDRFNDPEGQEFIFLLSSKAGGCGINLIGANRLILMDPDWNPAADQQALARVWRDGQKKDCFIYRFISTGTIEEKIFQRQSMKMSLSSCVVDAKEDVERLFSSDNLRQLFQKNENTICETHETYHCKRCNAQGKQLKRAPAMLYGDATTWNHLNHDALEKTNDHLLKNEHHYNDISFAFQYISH

His6-S-Rad54-T132D = target: T2, His6-S-Rad54-T132D (S. cerevisiae (budding yeast), UniProt P32863 1-898, T132D)
T2 sequence (looked up): T1 sequence (looked up) with T132D

His6-S-Rad54-T132A = target: T3, His6-S-Rad54-T132A (S. cerevisiae (budding yeast), UniProt P32863 1-898, T132A)
T3 sequence (looked up): T1 sequence (looked up) with T132A

binding result (His6-S-Rad54): binds | fold reduction in Rad51 binding compared to Rad54 (His6-S-Rad54-T132D): 2 fold | binding result (His6-S-Rad54-T132A): binds
B1: Rad51 (natural protein, S. cerevisiae (budding yeast), UniProt P25454 1-400, looked up)
chain: MSQVQEQHISESQLQYGNGSLMSTVPADLSQSVVDGNGNGSSEDIEATNGSGDGGGLQEQAEAQGEMEDEAYDEAALGSFVPIEKLQVNGITMADVKKLRESGLHTAEAVAYAPRKDLLEIKGISEAKADKLLNEAARLVPMGFVTAADFHMRRSELICLTTGSKNLDTLLGGGVETGSITELFGEFRTGKSQLCHTLAVTCQIPLDIGGGEGKCLYIDTEGTFRPVRLVSIAQRFGLDPDDALNNVAYARAYNADHQLRLLDAAAQMMSESRFSLIVVDSVMALYRTDFSGRGELSARQMHLAKFMRALQRLADQFGVAVVVTNQVVAQVDGGMAFNPDPKKPIGGNIMAHSSTTRLGFKKGKGCQRLCKVVDSPCLPEAECVFAIYEDGVGDPREEDE

From paper PMC2788773 (Molecular cell, 2009)
